Measurements taken from IntAct's records for PubMed 20664522.

B1: CAP-Gly domain-containing linker protein 1 (Homo sapiens), P30622 (parent)
chain: MSMLKPSGLKAPTKILKPGSTALKTPTAVVAPVEKTISSEKASSTPSSETQEEFVDDFRVGERVWVNGNKPGFIQFLGETQFAPGQWAGIVLDEPIGKNDGSVAGVRYFQCEPLKGIFTRPSKLTRKVQAEDEANGLQTTPASRATSPLCTSTASMVSSSPSTPSNIPQKPSQPAAKEPSATPPISNLTKTASESISNLSEAGSIKKGERELKIGDRVLVGGTKAGVVRFLGETDFAKGEWCGVELDEPLGKNDGAVAGTRYFQCQPKYGLFAPVHKVTKIGFPSTTPAKAKANAVRRVMATTSASLKRSPSASSLSSMSSVASSVSSRPSRTGLLTETSSRYARKISGTTALQEALKEKQQHIEQLLAERDLERAEVAKATSHVGEIEQELALARDGHDQHVLELEAKMDQLRTMVEAADREKVELLNQLEEEKRKVEDLQFRVEEESITKGDLEQKSQISEDPENTQTKLEHARIKELEQSLLFEKTKADKLQRELEDTRVATVSEKSRIMELEKDLALRVQEVAELRRRLESNKPAGDVDMSLSLLQEISSLQEKLEVTRTDHQREITSLKEHFGAREETHQKEIKALYTATEKLSKENESLKSKLEHANKENSDVIALWKSKLETAIASHQQAMEELKVSFSKGLGTETAEFAELKTQIEKMRLDYQHEIENLQNQQDSERAAHAKEMEALRAKLMKVIKEKENSLEAIRSKLDKAEDQHLVEMEDTLNKLQEAEIKVKELEVLQAKCNEQTKVIDNFTSQLKATEEKLLDLDALRKASSEGKSEMKKLRQQLEAAEKQIKHLEIEKNAESSKASSITRELQGRELKLTNLQENLSEVSQVKETLEKELQILKEKFAEASEEAVSVQRSMQETVNKLHQKEEQFNMLSSDLEKLRENLADMEAKFREKDEREEQLIKAKEKLENDIAEIMKMSGDNSSQLTKMNDELRLKERDVEELQLKLTKANENASFLQKSIEDMTVKAEQSQQEAAKKHEEEKKELERKLSDLEKKMETSHNQCQELKARYERATSETKTKHEEILQNLQKTLLDTEDKLKGAREENSGLLQELEELRKQADKAKAAQTAEDAMQIMEQMTKEKTETLASLEDTKQTNAKLQNELDTLKENNLKNVEELNKSKELLTVENQKMEEFRKEIETLKQAAAQKSQQLSALQEENVKLAEELGRSRDEVTSHQKLEEERSVLNNQLLEMKKRESKFIKDADEEKASLQKSISITSALLTEKDAELEKLRNEVTVLRGENASAKSLHSVVQTLESDKVKLELKVKNLELQLKENKRQLSSSSGNTDTQADEDERAQESQIDFLNSVIVDLQRKNQDLKMKVEMMSEAALNGNGDDLNNYDSDDQEKQSKKKPRLFCDICDCFDLHDTEDCPTQAQMSEDPPHSTHHGSRGEERPYCEICEMFGHWATNCNDDETF
B2: CAP-Gly domain-containing linker protein 1 (Rattus norvegicus (Rat)), Q9JK25 (parent)
chain: MSMLKPSGLKAPTKILKPGSTALKTPAAAAAPLEKTVPSEKASGPPSSETQEEFVDDFRVGERVWVNGNKPGFIQFLGETQFAPGQWAGIVLDEPIGKNDGSVAGVRYFQCEPLKGIFTRPSKLTRKVQAEDEANGLQTAHARAASPLSTAAATMVSSSPATPSNIPQKPSQPVAKETSATPQISNLTKTASESISNLSEAGSVKKGERELKIGDRVLVGGTKAGVVRFLGETDFAKGEWCGVELDEPLGKNDGAVAGTRYFQCQPKYGLFAPVHKVTKIGFPSTTPAKAKAAAVRRVMATTPASLKRSPSASSLSSMSSVASSVSSKPSRTGLLTETSSRYARKISGTTALQEALKEKQQHIEQLLAERDLERAEVAKATSHVGEIEQELALARDGHDQHVLELEAKMDQLRTMVEAADREKVELLNQLEEEKRKVEDLQFRVEEESITKGDLETQTKLEHARIKELEQSLLFEKTKADKLQRELEDTRVATVSEKSRIMELEKDLALRVQEVAELRRRLESSKPPGDVDMSLSLLQEISALQEKLEVTHTDHQNEVTSLKDHFGTREEMFQKEIKALHAATEKLSKENESLRSKLDHANKENSDVIALWKSKLETAIASHQQAMEELKVSFSKGIGTDSAEFAELKTQIERLRLDYQHEIESLQSKQDSERSAHAKEMESMKAKLMKIIKEKEDSLEAVKARLDTAEDQHLVEMEEMLSKLQEAEIKKEKFASASEEAVSTQTSMQDTVNKLHQKEEQFNMLSSELEKLRENLTDMEAKFKEKDEREDQLVKAKEKLENDIAEIMKMSGDNSSQLTKMNDELRLKERSVEELQLKLTKANENASLLQKSIGEVTLKAEQSQQEAAKKHEEEKKELENKLLELEKKMETSHYQCQDLKAKYEKASSETKIKHEEILQNFQKMLVDTEDKLKAAQEANRDLMQDMEELKSQADKAKAAQTAEDAMQIMEQMTKEKTETLASLEDTKQTNAKLQSELDTLKENNLKTVEELNKSKELLNEENQKMEEFKKEIETLKQAAAQKSQQLSALQEENVKLAEELGRTRDEVTSHQKLEEERSVLNNQLLEMKKSLPSNTLRESEYRKDADEEKASLQKSISLTSALLTEKDAELEKLRNEVTVLRGENASAKSLHSVVQTLESDKVKLELKVKNLELQLKENKRQLSSSSGNTDVQTEEDERAQESQQMIDFLNSVIVDLQRKNQDLKMKVEMMSEAALNGNGEDPNSYDSDDQEKQSKKKPRLFCDICDCFDLHDTEDCPTQAQMSEDPPHSTHHGSRSEERPYCEICEMFGHWATNCNDDETF

Variants of: B1
Conditions: with csk2b_human CSNK2B
Target sequence in this assay (P67870 whole entry): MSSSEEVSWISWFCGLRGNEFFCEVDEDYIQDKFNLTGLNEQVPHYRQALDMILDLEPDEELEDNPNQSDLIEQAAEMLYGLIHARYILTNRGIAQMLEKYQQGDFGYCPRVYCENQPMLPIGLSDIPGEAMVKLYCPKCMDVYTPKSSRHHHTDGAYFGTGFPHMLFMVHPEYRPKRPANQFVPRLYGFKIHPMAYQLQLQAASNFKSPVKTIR

Row | Variant | effect of a mutation on the interaction
1 | S195A | decreasing interaction

Variants of: B2
Conditions: with dctn1_human DCTN1, Q14203
Chain of dctn1_human DCTN1, Q14203 (Q14203 whole entry): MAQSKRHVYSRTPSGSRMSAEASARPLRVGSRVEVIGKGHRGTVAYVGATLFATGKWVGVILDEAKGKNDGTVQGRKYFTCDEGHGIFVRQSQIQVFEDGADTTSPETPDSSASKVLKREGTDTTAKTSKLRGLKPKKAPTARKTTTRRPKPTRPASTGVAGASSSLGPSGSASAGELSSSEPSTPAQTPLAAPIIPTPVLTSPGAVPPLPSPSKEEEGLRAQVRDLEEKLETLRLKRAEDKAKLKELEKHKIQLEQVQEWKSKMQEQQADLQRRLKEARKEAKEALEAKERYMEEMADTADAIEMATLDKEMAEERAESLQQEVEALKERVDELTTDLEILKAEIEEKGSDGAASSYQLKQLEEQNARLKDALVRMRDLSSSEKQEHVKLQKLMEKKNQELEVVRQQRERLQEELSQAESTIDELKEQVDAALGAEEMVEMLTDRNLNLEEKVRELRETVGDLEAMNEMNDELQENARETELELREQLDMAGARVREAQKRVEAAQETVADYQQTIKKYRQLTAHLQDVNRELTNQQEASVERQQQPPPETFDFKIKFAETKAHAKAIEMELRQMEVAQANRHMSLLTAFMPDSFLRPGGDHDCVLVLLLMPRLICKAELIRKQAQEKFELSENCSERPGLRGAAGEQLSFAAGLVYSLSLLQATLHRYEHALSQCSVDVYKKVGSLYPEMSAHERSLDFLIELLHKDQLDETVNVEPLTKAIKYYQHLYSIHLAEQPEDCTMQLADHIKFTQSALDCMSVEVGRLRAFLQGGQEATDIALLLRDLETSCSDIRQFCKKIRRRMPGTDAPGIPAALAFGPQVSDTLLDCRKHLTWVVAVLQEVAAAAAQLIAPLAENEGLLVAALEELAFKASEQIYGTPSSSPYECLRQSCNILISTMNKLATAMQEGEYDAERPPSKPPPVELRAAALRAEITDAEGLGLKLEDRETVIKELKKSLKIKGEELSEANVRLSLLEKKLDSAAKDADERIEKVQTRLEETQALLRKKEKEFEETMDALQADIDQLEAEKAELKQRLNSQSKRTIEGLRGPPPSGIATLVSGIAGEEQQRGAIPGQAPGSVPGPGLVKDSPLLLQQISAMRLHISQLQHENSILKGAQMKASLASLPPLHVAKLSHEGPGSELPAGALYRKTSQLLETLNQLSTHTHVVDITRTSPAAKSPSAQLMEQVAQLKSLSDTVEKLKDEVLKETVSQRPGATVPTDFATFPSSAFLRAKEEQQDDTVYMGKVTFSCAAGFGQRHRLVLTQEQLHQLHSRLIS

Row | Variant | effect of a mutation on the interaction
2 | S1246A | decreasing interaction

Variants of: B2
Conditions: with dctn1_human DCTN1, Q14203
Remark: another data set of the same source

Row | Variant | effect of a mutation on the interaction
3 | S194A | disrupting interaction

Variants of: B2
Conditions: with csk2b_human CSNK2B
Target sequence in this assay (P67870 whole entry): as the sequence (P67870 whole entry) above

Row | Variant | effect of a mutation on the interaction
4 | S194E | increasing interaction
